How the values were obtained:
GST-hnRNP A1 = GST-hnRNP A1 (UniProt P09651 1-372); experiment: EMSA; 2 ug tRNA competitor; LightShift Chemiluminescent EMSA kit; 20 fmol biotinylated RNA, 50 ng protein (20 ng in Fig. 3 legend), 2 ug tRNA, 20 ul, 20 min, room temperature; 6% native PAGE; buffer, salt and pH not stated; conditions: protein: recombinant; label: 3' biotin
GST-SF2/ASF = GST-SF2/ASF (UniProt Q07955 1-248); experiment: as above; conditions: protein: recombinant; label: 3' biotin
Sequence of GST-SF2/ASF (Q07955 whole entry): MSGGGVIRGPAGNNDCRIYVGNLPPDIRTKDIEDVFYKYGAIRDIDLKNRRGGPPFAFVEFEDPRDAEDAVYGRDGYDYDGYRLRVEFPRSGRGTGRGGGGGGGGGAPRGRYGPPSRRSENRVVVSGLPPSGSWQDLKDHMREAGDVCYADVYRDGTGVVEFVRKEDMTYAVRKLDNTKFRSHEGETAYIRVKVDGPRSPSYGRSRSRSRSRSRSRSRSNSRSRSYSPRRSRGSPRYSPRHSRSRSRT

Sequence of GST-hnRNP A1 (P09651 whole entry): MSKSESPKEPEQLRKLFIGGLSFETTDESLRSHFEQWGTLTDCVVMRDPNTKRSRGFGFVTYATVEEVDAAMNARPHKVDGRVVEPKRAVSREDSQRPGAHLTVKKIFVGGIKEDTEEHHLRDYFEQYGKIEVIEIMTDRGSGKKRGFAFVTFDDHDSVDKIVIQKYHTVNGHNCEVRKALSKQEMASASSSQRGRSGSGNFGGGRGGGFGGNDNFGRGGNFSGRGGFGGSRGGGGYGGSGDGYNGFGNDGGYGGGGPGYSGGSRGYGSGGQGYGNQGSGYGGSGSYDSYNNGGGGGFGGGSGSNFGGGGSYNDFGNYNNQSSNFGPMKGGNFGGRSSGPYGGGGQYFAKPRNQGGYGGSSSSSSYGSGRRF

UGAAAUAACUAGGGAAAGAGGAUG (ssRNA) [wt-A1]
binding result (GST-hnRNP A1): binds

ACGCUGGGGAAGGAUGUGCCAUGGAUAUGGGAAGGAACCCUAG (ssRNA) [wt-SF2]
binding result (GST-SF2/ASF): binds

Source: article PMC3639176, “HnRNP A1/A2 and SF2/ASF Regulate Alternative Splicing of Interferon Regulatory Factor-3 and Affect Immunomodulatory Functions in Human Non-Small Cell Lung Cancer Cells”
